Laboratory results as given in PMC8523169.

Target: full-length MukB (wild type) (E. coli) (UniProt P22523)
Test: fluorescence correlation spectroscopy (FCS); competition: MatP-Cy3B fixed at 1 nM, MukB at 400 nM; ParC variants at 10-fold, unlabeled MatP at 50-fold, DNA at 2.5-fold molar excess

Sequence of full-length MukB (wild type) (E. coli) (P22523 whole entry): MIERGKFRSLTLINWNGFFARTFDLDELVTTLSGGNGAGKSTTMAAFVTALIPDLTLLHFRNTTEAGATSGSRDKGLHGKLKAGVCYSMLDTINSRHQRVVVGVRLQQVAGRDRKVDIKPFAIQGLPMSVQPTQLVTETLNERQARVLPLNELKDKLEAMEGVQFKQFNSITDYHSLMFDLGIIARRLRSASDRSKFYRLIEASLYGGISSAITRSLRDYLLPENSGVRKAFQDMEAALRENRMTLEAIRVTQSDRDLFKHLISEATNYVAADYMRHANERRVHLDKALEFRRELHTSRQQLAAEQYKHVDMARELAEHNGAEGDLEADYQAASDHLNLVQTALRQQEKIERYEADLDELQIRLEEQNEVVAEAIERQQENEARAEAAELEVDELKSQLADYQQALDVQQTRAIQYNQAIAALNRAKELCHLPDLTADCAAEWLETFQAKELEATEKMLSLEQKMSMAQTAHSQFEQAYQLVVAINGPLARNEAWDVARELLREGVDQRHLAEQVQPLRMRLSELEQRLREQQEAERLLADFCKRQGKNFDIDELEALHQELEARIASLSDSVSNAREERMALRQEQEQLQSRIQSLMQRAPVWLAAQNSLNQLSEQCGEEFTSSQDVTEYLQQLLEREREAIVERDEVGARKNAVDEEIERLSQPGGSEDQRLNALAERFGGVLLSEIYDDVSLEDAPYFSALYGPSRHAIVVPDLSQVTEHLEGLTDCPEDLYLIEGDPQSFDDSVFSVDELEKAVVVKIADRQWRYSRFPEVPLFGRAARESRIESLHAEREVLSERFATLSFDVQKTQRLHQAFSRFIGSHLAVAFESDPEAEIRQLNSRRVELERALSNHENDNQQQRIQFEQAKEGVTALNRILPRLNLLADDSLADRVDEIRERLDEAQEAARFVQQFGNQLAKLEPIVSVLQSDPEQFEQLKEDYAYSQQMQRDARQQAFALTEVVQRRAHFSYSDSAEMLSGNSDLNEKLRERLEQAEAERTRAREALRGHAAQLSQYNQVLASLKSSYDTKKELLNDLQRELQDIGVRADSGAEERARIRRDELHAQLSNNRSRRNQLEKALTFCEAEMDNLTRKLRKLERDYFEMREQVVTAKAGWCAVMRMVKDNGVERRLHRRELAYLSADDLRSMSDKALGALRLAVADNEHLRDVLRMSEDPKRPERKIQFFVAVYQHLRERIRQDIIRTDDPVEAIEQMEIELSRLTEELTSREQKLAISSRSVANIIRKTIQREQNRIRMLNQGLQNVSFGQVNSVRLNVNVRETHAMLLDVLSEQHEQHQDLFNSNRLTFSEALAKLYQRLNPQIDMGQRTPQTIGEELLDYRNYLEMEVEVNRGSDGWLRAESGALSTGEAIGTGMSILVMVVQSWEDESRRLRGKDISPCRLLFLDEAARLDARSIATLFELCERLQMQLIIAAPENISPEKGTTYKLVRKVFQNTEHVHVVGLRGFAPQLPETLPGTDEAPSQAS
Sequence of MBP-ParC^CTD (ParC C-terminal domain with N-terminal MBP fusion) (domain or fragment) (P0AFI2 whole entry, the tested form may be a part): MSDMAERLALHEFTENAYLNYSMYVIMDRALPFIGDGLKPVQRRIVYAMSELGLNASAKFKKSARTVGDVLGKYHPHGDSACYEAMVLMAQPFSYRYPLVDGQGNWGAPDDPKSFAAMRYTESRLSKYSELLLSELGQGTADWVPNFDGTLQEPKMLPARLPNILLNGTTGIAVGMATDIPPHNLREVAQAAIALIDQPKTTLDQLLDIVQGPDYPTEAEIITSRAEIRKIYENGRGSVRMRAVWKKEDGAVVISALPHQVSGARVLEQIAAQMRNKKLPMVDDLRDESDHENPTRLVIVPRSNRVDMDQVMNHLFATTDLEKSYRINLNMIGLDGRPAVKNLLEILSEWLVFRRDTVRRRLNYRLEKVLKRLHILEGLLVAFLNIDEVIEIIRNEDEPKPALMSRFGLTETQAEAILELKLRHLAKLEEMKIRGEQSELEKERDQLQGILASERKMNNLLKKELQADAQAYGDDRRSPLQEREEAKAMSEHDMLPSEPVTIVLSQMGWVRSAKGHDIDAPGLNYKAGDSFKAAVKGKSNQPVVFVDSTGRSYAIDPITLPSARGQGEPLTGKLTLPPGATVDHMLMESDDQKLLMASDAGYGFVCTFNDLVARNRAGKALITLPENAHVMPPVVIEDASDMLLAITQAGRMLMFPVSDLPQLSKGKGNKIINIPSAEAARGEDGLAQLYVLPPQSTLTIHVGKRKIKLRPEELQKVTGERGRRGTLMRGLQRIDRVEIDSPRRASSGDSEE

Substance: MBP-ParC^CTD (ParC C-terminal domain with N-terminal MBP fusion) (domain or fragment)
- fold decrease in MatP-Cy3B binding to MukB at 10-fold excess of competitor: 3 fold
